Measured values published in patent US20150191515A1 (SYNTHETIC GENOMICS, published 2015).

T1: Hap-1742 (HapY), non-LEC1-type HAP3-like / NF-YB subunit of a CCAAT-box binding factor from Nannochloropsis … (Nannochloropsis gaditana)
T1 construct: also called Nannochloropsis NF-YB polypeptide
T1 chain: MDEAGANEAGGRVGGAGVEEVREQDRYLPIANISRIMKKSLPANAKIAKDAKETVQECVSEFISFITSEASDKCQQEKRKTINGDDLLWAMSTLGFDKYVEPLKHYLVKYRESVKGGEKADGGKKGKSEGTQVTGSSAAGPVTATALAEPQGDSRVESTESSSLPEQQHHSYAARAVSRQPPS

B1: NF-YA-1257 (EUKT1257), Nannochloropsis NF-Y subunit A (other)
chain: MDGAETGSGGDSDSGGGRKKIVRPCSSAETSLSMDVTATSYQGTNFNHMLSHGAPASAMVETHDGEGSLCPFPFQPPPHQQHNLQYQQPQEHQMQQTYYGQMNDDGNNFYDHSPHMEGFEPLGAPQEAAGSDLGPQPIFVNPKQYERIMKRREARARLENHRKIAAERKPFLHKSRHLHAVKRPRGPGGRFLTKEERIAWDEEQAQLEGTSTMGAVHVSNEVAAKTLYSSAQASIAAGPPLASQQGSRHASPPFSSPLSSSSCLPPSASTPVAPSGPSSYCSSSPII
notes: The open reading frame was cloned into prey vector pGADT7 (Clontech) and expressed in yeast strain Y2HGold; also called CBF-B/NF-YA
B2: EUKT6092, Nannochloropsis NF-YC polypeptide (other)
chain: MSGASGNGANPAVQQPYIPTDAEQAEHLQNLIRKLKDFWVEQLAEMETLSLASEQDFKNYIDLPLARIKRIMKSDEDVHMISAEVLVLFAKACEMFILELTIRSWCYSERSKRRTLQREDIQAAIANADILDFLVNIV
notes: Yeast two hybrid prey clone from a cDNA library in pGADT7-rec (Clontech), in yeast strain Y2HGold; also called NF-Y C subunit; HAP5 polypeptide
B3: EUKT1490, Nannochloropsis NF-YC polypeptide (other)
chain: MRLYRQIKKASMSRSPEVLQTSNSALSYASPSQAPSGAAIMMPTAPALPGRSTNTPNTQTGTEERKRDTPEGPKPSPLAGTPASMKAEEAPVSSKKARNAPIPPLSTSNAYVTEDTTLAIPRASIKRIMKLDPDTKQLSQDAIMVMAKATELFIDKLAKASHSMAVTNKRKTIKYEDIADARFSQKNMEFLDGVVPQIP
notes: as for B2

Legend:
[1] = target: T1, Hap-1742 (HapY), non-LEC1-type …; test: yeast two hybrid, NF-YA-1257 prey strain mated with Hap-1742 bait strain
[2] = target: T1, Hap-1742 (HapY), non-LEC1-type …; test: yeast two hybrid screen, Hap-1742 bait against Nannochloropsis cDNA prey library
Procedure: Based on these numbers, it is estimated that more than 10 million interactions were tested.

| Binder | binding result [1] | binding result [2] |
| --- | --- | --- |
| B1 | binds |  |
| B2 |  | binds |
| B3 |  | binds |
